Measured values taken from patent publication US20250361268A1, “NOVEL ANTI-INFLAMMATORY PEPTIDE AND USE THEREOF” (NOVACELL TECHNOLOGY INC., priority 2022, published 2025).

T1: FPR1 (UniProt P21462 1-350, limits assumed)
T1 sequence (looked up): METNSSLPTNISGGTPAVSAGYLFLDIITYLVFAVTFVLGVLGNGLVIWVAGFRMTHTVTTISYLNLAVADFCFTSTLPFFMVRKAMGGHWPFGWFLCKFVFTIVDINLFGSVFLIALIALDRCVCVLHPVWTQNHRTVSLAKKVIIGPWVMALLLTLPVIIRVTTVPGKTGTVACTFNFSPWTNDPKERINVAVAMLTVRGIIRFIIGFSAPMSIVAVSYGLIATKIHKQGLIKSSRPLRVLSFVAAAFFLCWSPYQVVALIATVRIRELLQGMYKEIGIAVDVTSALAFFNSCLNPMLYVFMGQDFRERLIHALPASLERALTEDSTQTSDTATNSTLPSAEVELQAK

B1: peptide of SEQ ID NO 34 (peptide)
peptide: RWRYKYM
HELM: PEPTIDE1{[CCCCCCCC(=O)[*:2]].R.W.R.Y.K.Y.[dM].[am]}$$$$V2.0
SMILES: CCCCCCCC(=O)N[C@@H](CCCNC(=N)N)C(=O)N[C@@H](Cc1c[nH]c2ccccc12)C(=O)N[C@@H](CCCNC(=N)N)C(=O)N[C@@H](Cc1ccc(O)cc1)C(=O)N[C@@H](CCCCN)C(=O)N[C@@H](Cc1ccc(O)cc1)C(=O)N[C@H](CCSC)C(N)=O
B2: peptide of SEQ ID NO 40 (peptide)
peptide: RMRYKYM
HELM: PEPTIDE1{[CCCCCCCC(=O)[*:2]].R.M.R.Y.K.Y.[dM].[am]}$$$$V2.0
SMILES: CCCCCCCC(=O)N[C@@H](CCCNC(=N)N)C(=O)N[C@@H](CCSC)C(=O)N[C@@H](CCCNC(=N)N)C(=O)N[C@@H](Cc1ccc(O)cc1)C(=O)N[C@@H](CCCCN)C(=O)N[C@@H](Cc1ccc(O)cc1)C(=O)N[C@H](CCSC)C(N)=O
B3: peptide of SEQ ID NO 130 (peptide)
peptide: IKKWMM
HELM: PEPTIDE1{I.K.K.W.M.[dM].[am]}$$$$V2.0; N-terminus assumed
SMILES: CC[C@H](C)[C@H](N)C(=O)N[C@@H](CCCCN)C(=O)N[C@@H](CCCCN)C(=O)N[C@@H](Cc1c[nH]c2ccccc12)C(=O)N[C@@H](CCSC)C(=O)N[C@H](CCSC)C(N)=O
B4: peptide of SEQ ID NO 153 (peptide)
peptide: RWRYRTM
HELM: PEPTIDE1{R.W.R.Y.R.T.[dM].[am]}$$$$V2.0; N-terminus assumed
SMILES: CSCC[C@@H](NC(=O)[C@@H](NC(=O)[C@H](CCCNC(=N)N)NC(=O)[C@H](Cc1ccc(O)cc1)NC(=O)[C@H](CCCNC(=N)N)NC(=O)[C@H](Cc1c[nH]c2ccccc12)NC(=O)[C@@H](N)CCCNC(=N)N)[C@@H](C)O)C(N)=O
B5: peptide of SEQ ID NO 42 (peptide)
peptide: MRYKYM
HELM: PEPTIDE1{[ac].M.R.Y.K.Y.[dM].[am]}$$$$V2.0
SMILES: CSCC[C@H](NC(C)=O)C(=O)N[C@@H](CCCNC(=N)N)C(=O)N[C@@H](Cc1ccc(O)cc1)C(=O)N[C@@H](CCCCN)C(=O)N[C@@H](Cc1ccc(O)cc1)C(=O)N[C@H](CCSC)C(N)=O
B6: peptide of SEQ ID NO 145 (peptide)
peptide: IKYKPM
HELM: PEPTIDE1{[CCCCCCCC(=O)[*:2]].I.K.Y.K.P.[dM].[am]}$$$$V2.0
SMILES: CCCCCCCC(=O)N[C@H](C(=O)N[C@@H](CCCCN)C(=O)N[C@@H](Cc1ccc(O)cc1)C(=O)N[C@@H](CCCCN)C(=O)N1CCC[C@H]1C(=O)N[C@H](CCSC)C(N)=O)[C@@H](C)CC
B7: peptide of SEQ ID NO 132 (peptide)
peptide: IKFKVM
HELM: PEPTIDE1{I.K.F.K.V.[dM].[am]}$$$$V2.0; N-terminus assumed
SMILES: CC[C@H](C)[C@H](N)C(=O)N[C@@H](CCCCN)C(=O)N[C@@H](Cc1ccccc1)C(=O)N[C@@H](CCCCN)C(=O)N[C@H](C(=O)N[C@H](CCSC)C(N)=O)C(C)C
B8: peptide of SEQ ID NO 32 (peptide)
peptide: RWRYKYM
HELM: PEPTIDE1{R.W.R.Y.K.Y.[dM].[am]}$$$$V2.0; N-terminus assumed
SMILES: CSCC[C@@H](NC(=O)[C@H](Cc1ccc(O)cc1)NC(=O)[C@H](CCCCN)NC(=O)[C@H](Cc1ccc(O)cc1)NC(=O)[C@H](CCCNC(=N)N)NC(=O)[C@H](Cc1c[nH]c2ccccc12)NC(=O)[C@@H](N)CCCNC(=N)N)C(N)=O
B9: peptide of SEQ ID NO 39 (peptide)
peptide: RMRYKYM
HELM: PEPTIDE1{[ac].R.M.R.Y.K.Y.[dM].[am]}$$$$V2.0
SMILES: CSCC[C@H](NC(=O)[C@H](CCCNC(=N)N)NC(C)=O)C(=O)N[C@@H](CCCNC(=N)N)C(=O)N[C@@H](Cc1ccc(O)cc1)C(=O)N[C@@H](CCCCN)C(=O)N[C@@H](Cc1ccc(O)cc1)C(=O)N[C@H](CCSC)C(N)=O
B10: peptide of SEQ ID NO 131 (peptide)
peptide: IKFKYM
HELM: PEPTIDE1{I.K.F.K.Y.[dM].[am]}$$$$V2.0; N-terminus assumed
SMILES: CC[C@H](C)[C@H](N)C(=O)N[C@@H](CCCCN)C(=O)N[C@@H](Cc1ccccc1)C(=O)N[C@@H](CCCCN)C(=O)N[C@@H](Cc1ccc(O)cc1)C(=O)N[C@H](CCSC)C(N)=O
B11: peptide of SEQ ID NO 155 (peptide)
peptide: RWRYNYM
HELM: PEPTIDE1{R.W.R.Y.N.Y.[dM].[am]}$$$$V2.0; N-terminus assumed
SMILES: CSCC[C@@H](NC(=O)[C@H](Cc1ccc(O)cc1)NC(=O)[C@H](CC(N)=O)NC(=O)[C@H](Cc1ccc(O)cc1)NC(=O)[C@H](CCCNC(=N)N)NC(=O)[C@H](Cc1c[nH]c2ccccc12)NC(=O)[C@@H](N)CCCNC(=N)N)C(N)=O
B12: peptide of SEQ ID NO 152 (peptide)
peptide: RWRYRIM
HELM: PEPTIDE1{R.W.R.Y.R.I.[dM].[am]}$$$$V2.0; N-terminus assumed
SMILES: CC[C@H](C)[C@H](NC(=O)[C@H](CCCNC(=N)N)NC(=O)[C@H](Cc1ccc(O)cc1)NC(=O)[C@H](CCCNC(=N)N)NC(=O)[C@H](Cc1c[nH]c2ccccc12)NC(=O)[C@@H](N)CCCNC(=N)N)C(=O)N[C@H](CCSC)C(N)=O
B13: peptide of SEQ ID NO 20 (peptide)
peptide: MKYKVM
HELM: PEPTIDE1{[CCCCCCCC(=O)[*:2]].M.K.Y.K.V.[dM].[am]}$$$$V2.0
SMILES: CCCCCCCC(=O)N[C@@H](CCSC)C(=O)N[C@@H](CCCCN)C(=O)N[C@@H](Cc1ccc(O)cc1)C(=O)N[C@@H](CCCCN)C(=O)N[C@H](C(=O)N[C@H](CCSC)C(N)=O)C(C)C
B14: peptide of SEQ ID NO 16 (peptide)
peptide: MRYKVM
HELM: PEPTIDE1{[CCCCCCCC(=O)[*:2]].M.R.Y.K.V.[dM].[am]}$$$$V2.0
SMILES: CCCCCCCC(=O)N[C@@H](CCSC)C(=O)N[C@@H](CCCNC(=N)N)C(=O)N[C@@H](Cc1ccc(O)cc1)C(=O)N[C@@H](CCCCN)C(=O)N[C@H](C(=O)N[C@H](CCSC)C(N)=O)C(C)C
B15: peptide of SEQ ID NO 129 (peptide)
peptide: IKFWMM
HELM: PEPTIDE1{I.K.F.W.M.[dM].[am]}$$$$V2.0; N-terminus assumed
SMILES: CC[C@H](C)[C@H](N)C(=O)N[C@@H](CCCCN)C(=O)N[C@@H](Cc1ccccc1)C(=O)N[C@@H](Cc1c[nH]c2ccccc12)C(=O)N[C@@H](CCSC)C(=O)N[C@H](CCSC)C(N)=O

These binders were tested against T1, FPR1 (assay: cell-based or functional assay).

Question: For B1, which “EC50 for [Ca2+]” value is on record?
Answer: > 10 µM

Question: B2 was tested. Which “EC50 for [Ca2+]” value did it give?
Answer: > 10 µM

Question: How did the “EC50 for [Ca2+]” value turn out when B3 was run?
Answer: > 10 µM

Question: Which “EC50 for [Ca2+]” value does the source give for B4 here?
Answer: > 10 µM

Question: Which “EC50 for [Ca2+]” value does the source give for B5 here?
Answer: > 10 µM

Question: B6 was tested. Which “EC50 for [Ca2+]” value did it give?
Answer: > 10 µM

Question: B7 was tested. Which “EC50 for [Ca2+]” value did it give?
Answer: > 10 µM

Question: B8 was tested. Which “EC50 for [Ca2+]” value did it give?
Answer: > 10 µM

Question: For B9, which “EC50 for [Ca2+]” value is on record?
Answer: > 10 µM

Question: For B10, which “EC50 for [Ca2+]” value is on record?
Answer: > 10 µM

Question: With B11 as the binder, how does the “EC50 for [Ca2+]” value read?
Answer: > 10 µM

Question: B12 was tested. Which “EC50 for [Ca2+]” value did it give?
Answer: > 10 µM

Question: Which “EC50 for [Ca2+]” value does the source give for B13 here?
Answer: > 10 µM

Question: For B14, which “EC50 for [Ca2+]” value is on record?
Answer: > 10 µM

Question: For B15, which “EC50 for [Ca2+]” value is on record?
Answer: > 10 µM
